# Results from the supplement of paper PMC11246515.
# ± gives the standard deviation of the averaged measurements.
# Experiment: total protein half-life in vivo (active degradation + dilution); higher = more stable protein
# [1] = E. coli NCM3722 delta-clpP delta-lon delta-hslV, growth: N-lim chemostat, doubling time 6 h
# [2] = E. coli NCM3722 delta-clpP, growth: N-lim chemostat, doubling time 6 h
# [3] = E. coli NCM3722 delta-hslV, growth: N-lim chemostat, doubling time 6 h
# [4] = E. coli NCM3722 delta-lon, growth: N-lim chemostat, doubling time 6 h
# [5] = E. coli NCM3722 delta-smpB, growth: N-lim chemostat, doubling time 6 h
# [6] = wild type E. coli NCM3722, growth: C-lim chemostat, doubling time 3 h
# [7] = wild type E. coli NCM3722, growth: C-lim chemostat, doubling time 6 h
# [8] = wild type E. coli NCM3722, growth: C-lim chemostat, doubling time 12 h
# [9] = wild type E. coli NCM3722, growth: N-lim chemostat, doubling time 6 h
# [10] = wild type E. coli NCM3722, growth: N-lim chemostat, doubling time 12 h
# [11] = wild type E. coli NCM3722, growth: P-lim chemostat, doubling time 6 h
# [12] = wild type E. coli NCM3722, growth: P-lim chemostat, doubling time 12 h
Sequence,total protein half-life in vivo [1] [h],total protein half-life in vivo [2] [h],total protein half-life in vivo [3] [h],total protein half-life in vivo [4] [h],total protein half-life in vivo [5] [h],total protein half-life in vivo [6] [h],total protein half-life in vivo [7] [h],total protein half-life in vivo [8] [h],total protein half-life in vivo [9] [h],total protein half-life in vivo [10] [h],total protein half-life in vivo [11] [h],total protein half-life in vivo [12] [h]
MESKVVVPAQGKKITLQNGKLNVPENPIIPYIEGDGIGVDVTPAMLKVVDAAVEKAYKGERKISWMEIYTGEKSTQVYGQDVWLPAETLDLIREYRVAIKGPLTTPVGGGIRSLNVALRQELDLYICLRPVRYYQGTPSPVKHPELTDMVIFRENSEDIYAGIEWKADSADAEKVIKFLREEMGVKKIRFPEHCGIGIKPCSEEGTKRLVRAAIEYAIANDRDSVTLVHKGNIMKFTEGAFKDWGYQLAREEFGGELIDGGPWLKVKNPNTGKEIVIKDVIADAFLQQILLRPAEYDVIACMNLNGDYISDALAAQVGGIGIAPGANIGDECALFEATHGTAPKYAGQDKVNPGSIILSAEMMLRHMGWTEAADLIVKGMEGAINAKTVTYDFERLMDGAKLLKCSEFGDAIIENM,4.7 ± 0.38,4.36 ± 0.53,4.05 ± 0.061,4.61 ± 0.056,4.1 ± 0.047,3.16 ± 0.068,5.584 ± 0.048,10.1 ± 0.64,4.08 ± 0.24,6.47 ± 0.1,5.73 ± 0.1,12.3 ± 0.41
MESLLTLPLAGEARVRILQITDTHLFAQKHEALLGVNTWESYQAVLEAIRPHQHEFDLIVATGDLAQDQSSAAYQHFAEGIASFRAPCVWLPGNHDFQPAMYSALQDAGISPAKRVFIGEQWQILLLDSQVFGVPHGELSEFQLEWLERKLADAPERHTLLLLHHHPLPAGCSWLDQHSLRNAGELDTVLAKFPHVKYLLCGHIHQELDLDWNGRRLLATPSTCVQFKPHCSNFTLDTIAPGWRTLELHADGTLTTEVHRLADTRFQPDTASEGY [P0AEW4],5.15 ± 0.77,4.65 ± 0.26,4.6 ± 0.28,4.98 ± 0.096,4.34 ± 0.65,2.948 ± 0.017,5.4 ± 0.74,11.6 ± 1.3,4.56 ± 0.88,8.5 ± 0.45,4.435 ± 0.035,8.69 ± 0.43
MESLMPWDARDTMSLRTEFVLFASQDGANIRSLCRRFGISPATGYKWLQRWAQEGAAGLQDRPRIPHHSPNRSSDDITALLRMAHDRHERWGARKIKRWLEDQGHTMPAFSTVHNLMARHGLLPGASPGIPATGRFEHDAPNRLWQMDFKGHFPFGGGRCHPLTLLDDHSRFSLCLAHCTDERRETVQQQLVSVFERYGLPDRMTMDNGSPWGDTTGTWTALELWLMRLGIRVGHSRPYHPQTQGKLERFHRSLKAEVLQGKWFADSGELQRAFDHWRTVYNLERPHEALDMAVPGSRYQPSARQYSGNTTPPEYDEGVMVRKVDISGKLSVKGVSLSAGKAFRGERVGLKEMQEDGSYEVWWYSTKVGVIDLKKKSITMGKGC,3.5 ± 0.88,3.06,–,–,–,–,2.18,5.67,–,4.45,–,–
MESLSEGTTAGYQQIHDGIIHLVDSARTETVRSVNALMTATYQEIGRRIVEFEQGGEARAAYGAQLIKRLSKDLCLRYKRGFSAKNLRQMRLFYLFFQHVEIHQTMSGELTPLGIPQTPSAEFPSAKIWQTLSAKSFPLPRSTYVRLLSVKNADARSFYEKETLRCGWSVRQLERQIATQFYERTLLSHDKSAMLQQHAPAETHILPQQAIRDPFVLEFLELKDEYSESDFEEALINHLMDFMLELGDDFAFVGRQRRLRIDDNWFRVDLLFFHRRLRCLLIVDLKVGKFSYSDAGQMNMYLNYAKEHWTLPDENPPIGLVLCAEKGAGEAHYALAGLPNTVLASEYKMQLPDEKRLADELVRTQAVLEEGYRRR,–,–,5.34,–,–,–,5.89,–,–,–,–,–
MESPLGSDLARLVRIWRALIDHRLKPLELTQTHWVTLHNIHQLPPDQSQIQLAKAIGIEQPSLVRTLDQLEEKGLISRQTCASDRRAKRIKLTEKAEPLISEMEAVINKTRAEILHGISAEELEQLITLIAKLEHNIIELQAKG [P0A8W2],5.958 ± 0.04,5.81 ± 0.18,5.88 ± 0.54,–,5.79 ± 0.084,3.38 ± 0.4,5.19 ± 0.19,11.38 ± 0.033,5.01 ± 0.34,11 ± 2.7,4.64 ± 1.1,9.76 ± 0.57
MESWLIPAAPVTVVEEIKKSRFITMLAHTDGVEAAKAFVESVRAEHPDARHHCVAWVAGAPDDSQQLGFSDDGEPAGTAGKPMLAQLMGSGVGEITAVVVRYYGGILLGTGGLVKAYGGGVNQALRQLTTQRKTPLTEYTLQCEYHQLTGIEALLGQCDGKIINSDYQAFVLLRVALPAAKVAEFSAKLADFSRGSLQLLAIEE,5.13,3.99 ± 0.14,–,3.84 ± 0.059,2.87 ± 0.15,2.93 ± 0.19,4.62 ± 0.11,15,3.48 ± 0.22,4.67 ± 0.14,4.78,7.73 ± 0.15
MESYSQNSNKLDFQHEARILNGIWLITALGLVATAGLAWGAKYIEITATKYDSPPMYVAIGLLLLCMYGLSKDINKINAAIAGVIYLFLLSLVAIVVASLVPVYAIIIVFSTAGAMFLISMLAGLLFNVDPGSHRFIIMMTLTGLALVIIVNAALMSERPIWIISCLMIVLWSGIISHGRNKLLELAGKCHSEELWSPVRCAFTGALTLYYYFIGFFGILAAIAITLVWQRHTRFFH,–,–,–,–,–,–,–,–,> 8,–,–,–
METLIAISRWLAKQHVVTWCVQQEGELWCANAFYLFDAQKVAFYILTEEKTRHAQMSGPQAAVAGTVNGQPKTVALIRGVQFKGEIRRLEGEESDLARKAYNRRFPVARMLSAPVWEIRLDEIKFTDNTLGFGKKMIWLRDSGTEQA,5.46 ± 0.32,5.48 ± 0.64,–,–,4.81 ± 0.52,–,6.11 ± 0.22,13.5 ± 1.2,5.11 ± 0.18,9.39 ± 0.75,5.48 ± 1.1,12.5 ± 0.68
METPQPDKTGMHILLKLASLVVILAGIHAAADIIVQLLLALFFAIVLNPLVTWFIRRGVQRPVAITIVVVVMLIALTALVGVLAASFNEFISMLPKFNKELTRKLFKLQEMLPFLNLHMSPERMLQRMDSEKVVTFTTALMTGLSGAMASVLLLVMTVVFMLFEVRHVPYKMRFALNNPQIHIAGLHRALKGVSHYLALKTLLSLWTGVIVWLGLELMGVQFALMWAVLAFLLNYVPNIGAVISAVPPMIQVLLFNGVYECILVGALFLVVHMVIGNILEPRMMGHRLGMSTMVVFLSLLIWGWLLGPVGMLLSVPLTSVCKIWMETTKGGSKLAILLGPGRPKSRLPG [P0AGM0],6.64 ± 0.097,–,–,–,5.16,–,7.02,11.5 ± 0.41,–,–,–,13.6
MEWLVKKSCCNKQDNRHVLMLCDAGGAIKMIAEVKSDFAVKVGDLLSPLQNALYCINREKLHTVKVLSASSYSPDEWERQCKVAGKTQ,5.09 ± 0.77,–,3.24,3.35,4.9,2.04 ± 0.53,4.32,7.64 ± 1.4,–,4.88,4.39,7.16 ± 1.1
MEWSLTQNKLLAFHRLMRTDKPIGALLLLWPTLWALWVATPGVPQLWILAVFVAGVWLMRAAGCVVNDYADRKFDGHVKRTANRPLPSGAVTEKEARALFVVLVLISFLLVLTLNTMTILLSIAALALAWVYPFMKRYTHLPQVVLGAAFGWSIPMAFAAVSESVPLSCWLMFLANILWAVAYDTQYAMVDRDDDVKIGIKSTAILFGQYDKLIIGILQIGVLALMAIIGELNGLGWGYYWSILVAGALFVYQQKLIANREREACFKAFMNNNYVGLVLFLGLAMSYWHF [P0AGK1],1.5 ± 0.18,1.13,1.29,0.759,1.45 ± 0.17,1.27 ± 0.027,1.92 ± 0.27,2.32 ± 0.41,1.29 ± 0.2,–,2.18 ± 0.52,2.85
MFDFSKVVDRHGTWCTQWDYVADRFGTADLLPFTISDMDFATAPCIIEALNQRLMHGVFGYSRWKNDEFLAAIAHWFSTQHYTAIDSQTVVYGPSVIYMVSELIRQWSETGEGVVIHTPAYDAFYKAIEGNQRTVMPVALEKQADGWFCDMGKLEAVLAKPECKIMLLCSPQNPTGKVWTCDELEIMADLCERHGVRVISDEIHMDMVWGEQPHIPWSNVARGDWALLTSGSKSFNIPALTGAYGIIENSSSRDAYLSALKGRDGLSSPSVLALTAHIAAYQQGAPWLDALRIYLKDNLTYIADKMNAAFPELNWQIPQSTYLAWLDLRPLNIDDNALQKALIEQEKVAIMPGYTYGEEGRGFVRLNAGCPRSKLEKGVAGLINAIRAVR,5.24 ± 1.1,4.66 ± 0.39,4.58 ± 0.52,5.26 ± 0.077,4.53 ± 0.058,3.15 ± 0.095,5.26 ± 0.26,10.2 ± 2,4.39 ± 0.095,7.95 ± 0.93,5.78 ± 0.25,11 ± 1.4
MFDVLMYLFETYIHTEAELRVDQDKLEQDLTDAGFEREDIYNALLWLEKLADYQEGLAEPMQLASDPLSMRIYTPEECERLDASCRGFLLFLEQIQVLNLETREMVIERVLALDNAEFELDDLKWVILMVLFNIPGCENAYQQMEELLFEVNEGMLH [P0A828],5.9529 ± 0.00025,0.182,–,0.569,0.365,–,–,0.0972,1.05,–,–,–
